Laboratory results: doi:10.1101/2021.10.11.463801 (2021)

Target: T1, JIP4[1-103] (human, UniProt O60271-1 1-103)
T1 chain: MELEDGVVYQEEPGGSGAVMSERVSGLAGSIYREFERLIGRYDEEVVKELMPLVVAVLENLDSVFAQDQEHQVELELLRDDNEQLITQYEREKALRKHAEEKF
Assay: ITC

B1: DLIC1[388-523] (domain or fragment)
chain: PTAAGRPVDASPRVPGGSPRTPNRSVSSNVASVSPIPAGSKKIDPNMKAGATSEGVLANFFNSLLSKKTGSPGGPGVSGGSPAGGAGGGSSGLPPSTKKSGQKPVLDVHAELDRITRKPVTVSPTTPTSPTEGEAS
  Kd: 4.5 µM
